Data on 15 molecules can be found in US20230312698A1 (NANJING GENSCRIPT BIOTECH, published 2023).

The chains are these.
T1: membrane-anchored human Ang2 protein expressed on CHO-K1 cells (human, UniProt O15123 19-496)
T1 chain: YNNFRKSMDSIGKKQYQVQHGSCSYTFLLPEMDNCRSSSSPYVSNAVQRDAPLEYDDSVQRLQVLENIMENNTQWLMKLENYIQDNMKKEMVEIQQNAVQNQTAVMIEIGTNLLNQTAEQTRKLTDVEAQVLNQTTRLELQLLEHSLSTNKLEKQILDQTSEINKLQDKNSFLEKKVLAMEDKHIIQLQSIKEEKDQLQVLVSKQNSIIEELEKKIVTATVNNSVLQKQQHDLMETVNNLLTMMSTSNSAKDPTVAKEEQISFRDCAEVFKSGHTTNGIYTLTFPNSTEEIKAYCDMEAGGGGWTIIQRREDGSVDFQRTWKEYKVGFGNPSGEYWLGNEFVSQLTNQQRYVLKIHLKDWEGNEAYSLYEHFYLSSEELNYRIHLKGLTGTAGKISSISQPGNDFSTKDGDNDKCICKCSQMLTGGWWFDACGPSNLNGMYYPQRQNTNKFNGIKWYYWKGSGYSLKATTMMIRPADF

T2: membrane-anchored cyno Ang2 protein expressed on CHO-K1 cells (cyno, UniProt A0A2K5VNX6 19-496)
T2 chain: T1 chain with E258G, I279V, F284L, I291V, G410A, A468G, D477G

T3: human Ang2 protein (R&D Systems, 623-AN-01M/CF; 623-AN/CF) (human, UniProt O15123 19-496)
T3 chain: T1 chain

T4: human Ang2 protein (R&D Systems, 623-AN-01M/CF; 623-AN/CF) (human, UniProt O15123 19-496)
T4 construct: Bought recombinant protein; also called Ang2 proteins; angiopoietin-2
T4 sequence (looked up): T1 chain

T5: mouse Ang2 protein (R&D Systems, 7186-AN-025/CF) (mouse, UniProt O35608 19-496, limits assumed)
T5 construct: Bought recombinant protein
T5 sequence (looked up): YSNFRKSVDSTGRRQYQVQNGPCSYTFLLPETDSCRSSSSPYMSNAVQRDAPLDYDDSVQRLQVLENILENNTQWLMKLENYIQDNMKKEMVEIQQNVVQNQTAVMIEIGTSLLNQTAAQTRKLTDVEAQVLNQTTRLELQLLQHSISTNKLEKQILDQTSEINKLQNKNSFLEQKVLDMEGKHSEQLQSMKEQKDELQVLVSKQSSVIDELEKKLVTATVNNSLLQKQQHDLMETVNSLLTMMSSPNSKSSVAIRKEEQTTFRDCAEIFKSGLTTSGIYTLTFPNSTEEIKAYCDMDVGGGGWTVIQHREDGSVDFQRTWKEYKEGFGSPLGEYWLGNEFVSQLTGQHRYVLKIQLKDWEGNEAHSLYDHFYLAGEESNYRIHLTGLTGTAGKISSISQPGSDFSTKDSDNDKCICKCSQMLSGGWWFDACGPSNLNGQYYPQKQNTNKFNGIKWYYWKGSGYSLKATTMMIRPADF

B1: 46F3H4 (antibody, V domains shown)
VH: EVQLHQSGPELVKPGASVKMSCKASGYTFTNYYIHWVKQSHGKSIEWIGYIYPNNGDTTYNQKFKGKATLTVDKSSSIAYMELRSLTSEDSAVYYCAVVSYSNYVAGAMDYWGQGTSVTVSS
VL: SIVMTQTPKFLLVSAGDRVTITCKASQSVSNDVAWYQQKPGQSPKLLIYFASNRYTGVPDRFTGSGYGTDFTFTISTVQAEDLAVYFCQQDYSSPYTFGGGTKLEIK
notes: Hybridoma antibody purified with Protein-A beads
B2: 42C3A4 (antibody, V domains shown)
VH: EVKLEESGGGLVQPGGSMKLSCVASGITFSNYWMDWVRQSPEKGLEWVAEIRLKSNNYATHYAESVKGRFTISRDDSKNSVYLQMNNLRAEDTGIYYCTRGAPLFGGYYKGVYFDYWGQGTTLTVSS
VL: B1 VL with I2F, F10S, V13A, K24Q, D32E, F50Y, N53S, T63A, S93N
notes: as for B1
B3: 49E4C2 (antibody, V domains shown)
VH: B2 VH with N79S, G106D
VL: B1 VL with I2T, F10S, V13A, T20A, D32E, Q42L, F50Y, S93N
notes: as for B1
B4: 33A3E2 (antibody, V domains shown)
VH: EVKLVESGGGLVQPGGSRKLSCAASGFTFSDYGMVWVRQAPGKGLEWVAYIGSGRSTIYYADTVKGRFTISRDNPKNTLFLQMSSLRSEDTAMYYCAREDNGYSYAMDYWGQGTSVTVSS
VL: DIQMTQSPASQSASLGESVTITCLTSQTIGTWLAWYQQKPGKSPQLLIYAATSLADGVPSRFSGSGSGTKFSFKISSLQAEDFVSYYCQQLYSIPLTFGAGTKLELK
B5: 39C1C4 (antibody, V domains shown)
VH: B4 VH with S56N, A97V
VL: B4 VL with T25A
B6: 49B8G4 (antibody, V domains shown)
VH: B4 VH with V48I, S56N
VL: B4 VL with I21V, T25A, V84G, A100V
B7: 7F10B2 (antibody, V domains shown)
VH: EVQLQQSGPELVKPGSSVKISCKTSGYTFTDYNMDWVKQSHGKSLEWIGTINPKNGETSDNQKFKAKATLTVDKSSSTAYMELRSLTSEDSAVYYCAKNVDYSNYLFFPMDYWGQGTSVTVSS
VL: SIVMTQTPKFLLVSAGDRVTITCKASQSVSNDVAWYQQKPGQSPKLLIYYASNRFTGVPDRFTGSGYGTDFTFTITTVQAEDLAVYFCQQDYSSRTFGGGTKLEIK
B8: 15B4C6 (antibody, V domains shown)
VH: QVQLKESGPGLVAPSQSLSITCTVSGFSLNGYGVNWVRQPPGKGLEWLGLIWNNGSTDYNSALKSRLTISKDNSKSLVFLKMNSLQTDDTARYYCARDPLYLLRGAMDYWGQGTSVTVSS
VL: DIVLTQSPASLTVSLGQRATISCRASKSVSSSGYNFIYWYQQKPGQPPKLLIYLASNLESGVPARFSGSGSGTDFTLNIHPVEEEDAATYYCQHSRDLPLTFGAGTKLELK
B9: 45C5A1 (antibody, V domains shown)
VH: EVKLVESGGGLVQPGGSLKLSCAASGFTFSNYTMSWVRQTPEKRLELVAEISNSDGSAYYPDTVKGRFTISRDNAKKTLYLQMSSLKSEDTAMYYCARHGGLRVYYAIDYWGQGTSVTVSS
VL: DIQMTQSPASQSASLGESVTITCLASQTIGPWLAWYQQKPGKSPQLLIYAATSLADGVPSRFSGSGSGTKFSFKISSLQAEDFVSYYCQQLYSDPLYTFGGGTKLEMK
B10: 17F3E8 (antibody, V domains shown)
VH: B1 VH with S44T, Y52H, T59S, G66D, I78T, E82D, A97S, N103H, M109L, Y111N
VL: B1 VL
B11: 27H11B5 (antibody, V domains shown)
VH: DVQLQESGPGLVKPSQSLSLTCTVTGYSITSDYAWNWIRQFPGNKLEWMGYISYSGSTSYNPSLKSRISITRDTSKNQFFLQLNSVTTEDTATYYCARCVYGNYVGAMDYWGQGTSVTVSS
VL: B1 VL with S30T, F50Y, A80T, Y96L, G100A, I106L
B12: 25C5D6F3 (antibody, V domains shown)
VH: EVNLVESGGGLVQPGGSLRLSCATSGFTFSDFYMEWVRQPPGKRLEWIAASRNKANDYTTEYSASVKGRFIVSRDTSQSILYLQMNALRAEDTAIYYCTRGSYTNYTWFAYWGQGTLVTVSA
VL: B1 VL
B13: 31E2D4 (antibody, V domains shown)
VH: QIQLVQSGPELKKPGETVKISCKASGYTLTNYGMNWVKQAPGKGLKWMGWINSYSGVPTYADDFKGRFAFSLETSASTAYLQINNLKNEDTATYFCARGENNYYGGSYDWGQGTTLTVSS
VL: B1 VL with F50Y, Y96L, G100A, I106L, K107R
B14: 15H10D12 (antibody, V domains shown)
VH: DVQLQESGPGLVKPSQSLSLTCTVTGYSITSDYAWNWIRQFPGNRLEWMGYINYSGSTDYNPSLKSRISITRDTSKNQFFLQLNSVTTEDTATYYCARGVRGDMDYWGQGTSVTVSS
VL: B1 VL with F50Y, E81D, Y96F, G100S
B15: 50H8E5C5 (antibody, V domains shown)
VH: B1 VH with I34M, T59N, I78T, Y95S
VL: B1 VL

Changes are numbered by the printed parent chain.

The first test concerns the target T1, membrane-anchored human Ang2 protein …. Briefly: FACS. For orientation: A flow cytometer gives signals particle by particle.
The molecule B1 registered a 50% effective concentration (EC50) of 6.33 nM. Same read-out and setting: the figure for B2 is 0.155 nM. B3: the midpoint of the response, the EC50, lay at 0.14 nM.

A further test deals with T2, membrane-anchored cyno Ang2 protein …. Briefly: FACS.
As for B1, the EC50 was determined as 18.8 nM. The same measure, in the same setting: the figure for B2 is 8.13 nM. In turn, B3 came in with a 50% effective concentration (EC50) of 29.4 nM.

The target in the next test is T3, human Ang2 protein (R&D Systems, …). Briefly: ELISA. (In general: ELISA stands for enzyme-linked immunosorbent assay.)
On to B4, for which the EC50 came out at 5.59 ng/mL.

In turn, B5 had an EC50 of 4.47 ng/mL. B6 came in with a concentration giving a half-maximal response (EC50) of 4.57 ng/mL. Still for that read-out and setting: the figure for B7 is 4.62 ng/mL. As for B8, the response was half-maximal at 11.2 ng/mL (EC50). Same read-out and setting: the figure for B9 is 7.03 ng/mL.

The molecule B1 came in with a concentration giving a half-maximal response (EC50) of 42.4 ng/mL. For the molecule B10, the response was half-maximal at 12.2 ng/mL (EC50). B11 yielded an EC50 of 9.97 ng/mL. Take B12: the response was half-maximal at 17.6 ng/mL (EC50).

Turning to B13, a half-maximal effect (EC50) was put at 6.6 ng/mL. The molecule B2 came in with an EC50 of 11.4 ng/mL. For the molecule B14, it took 9.28 ng/mL to reach a half-maximal effect (EC50). Same read-out and setting: the figure for B15 is 66.2 ng/mL; for B3 it is 11 ng/mL.

For another test, the target named is T4, human Ang2 protein (R&D Systems, …). As to the kind of experiment: indirect ELISA, human Ang2 coated at 0.5 µg/ml. Here is the method:
(§1) The antibodies were tested for their binding activities to Ang2 in an indirect ELISA. Briefly, 100 μl of 0.5 μg/ml human or mouse Ang2 proteins (R&D Systems; 623-AN-01M/CF for human Ang2, 7186-AN-025/CF for mouse Ang2) were pre-coated onto ELISA plates overnight at 4° C. On the next day, the plates were incubated with […] diluted primary antibodies, with initial concentration at 1 μg/ml. The plates were added with HRP-conjugated goat anti-mouse IgG (H+L) and then TMB for chromogenic reaction. The antibody-antigen binding curves were generated with optical density readings at 450 nm. Raw data was plotted using GraphPad Prism v6.02 software with four parameters, and best-fit values program was used to analyze the EC₅₀.
With B1, the binding result was “binds”. Same read-out and setting: the entry for B2 is “binds”. For the molecule B3, the binding result is recorded as “binds”.

The next test has as its target T5, mouse Ang2 protein (R&D Systems, …). As to the kind of experiment: indirect ELISA, mouse Ang2 coated at 0.5 µg/ml. As to the method: as §1
In the case of B1, the binding result is listed as “no binding (tested: initial concentration at 1 µg/ml)”.

As usually defined, the EC50 is the concentration at which the effect is half-maximal. Low readings indicate higher potency in that assay, high ones lower potency in that assay.
